First the molecules themselves.
B1: 8.11natM (peptide)
peptide: GLADQLIHM
modifications: not checked
B2: 8.45natC (peptide)
peptide: LCFGWCFKL
modifications: not checked
B3: 8.47nat (peptide)
peptide: RLAFHHMAR
modifications: not checked
B4: 8.116nat (peptide)
peptide: ALGIIQAQ
modifications: not checked
B5: 8.93nat (peptide)
peptide: YIKIFIMIV
modifications: not checked
B6: 8.12nat (peptide)
peptide: ALAALITPK
modifications: not checked
B7: 8.3nat (peptide)
peptide: ALVEMGHHA
modifications: not checked
B8: 8.121mod (peptide)
peptide: WLFKLVPV
modifications: not checked
B9: 8.16nat (peptide)
peptide: ILVESPAVL
modifications: not checked
B10: 8.88nat (peptide)
peptide: AIEAQQHLL
modifications: not checked
B11: 8.21nat (peptide)
peptide: FLWMGYELH
modifications: not checked
B12: 8.54nat (peptide)
peptide: RTLNAWVKV
modifications: not checked
B13: 8.15natM (4.40) (peptide)
peptide: GMGSPQILV
modifications: not checked
B14: 8.123natG (peptide)
peptide: TGNPPIPV
modifications: not checked
B15: 8.56nat (peptide)
peptide: TLQEQIGWM
modifications: not checked
B16: 8.64nat (peptide)
peptide: ALGPAATLE
modifications: not checked
B17: 8.75natV (peptide)
peptide: NIWATHACV
modifications: not checked
B18: 8.135nat (peptide)
peptide: FLGAAGST
modifications: not checked
B19: 8.65nat (peptide)
peptide: ATLEEMMTA
modifications: not checked
B20: 4.14 (peptide)
peptide: SLVKHHMYV
modifications: not checked
B21: 8.115nat (peptide)
peptide: LNFPISPI
modifications: not checked
B22: 4.14 variant (peptide)
peptide: SLVKHHMYI
modifications: not checked
B23: 8.10natT (peptide)
peptide: KTKPPLPSV
modifications: not checked
B24: 8.130nat (peptide)
peptide: SGGDPEIV
modifications: not checked
B25: 8.121nat (peptide)
peptide: WCFKLVPV
modifications: not checked
B26: 8.49nat (peptide)
peptide: NTVATLYCV
modifications: not checked
B27: 8.42nat (peptide)
peptide: YLAWVPAHK
modifications: not checked
B28: 8.1nat (peptide)
peptide: VVAAIIAIV
modifications: not checked
B29: 8.14nat (peptide)
peptide: LQLPPIERL
modifications: not checked
B30: 8.33nat (peptide)
peptide: LKTAVQMAV
modifications: not checked

In the test the target is HLA-A2 MHC-I (HLA-A*0204, affinity purified from the EBV transformed cell line RML) (human).
The Kd is the concentration at which binding is half-saturated. A high value points to weaker binding. B1 returned a Kd of 135 nM. B2 showed a Kd of 580 nM. In turn, B3 returned a Kd of 670 nM. The value for B4 was 97 nM. The value for B5 was 24 nM. Take B6: the Kd is 62 nM.

The molecule B7 yielded a Kd of 160 nM.

As for B8, the Kd was 183 nM. The molecule B9 had a dissociation constant Kd of 13 nM. Molecule B10 displayed a Kd of 850 nM. On to B11, for which the Kd stood at 445 nM.

For B12, the Kd amounted to 170 nM.

The molecule B13 registered a Kd of 120 nM. The value for B14 was 700 nM; that for B15 was 245 nM. B16 returned a Kd of 830 nM. For B17 the value was 57 nM; for B18, 870 nM; for B19, 77 nM. The molecule B20 returned a Kd of 21 nM. B21 registered a Kd of 29 nM. B22 came in with a Kd of 123 nM. For B23 the value was 39 nM; for B24, 950 nM. For B25 the value was 200 nM; for B26, 170 nM. The value for B27 was 200 nM. In turn, B28 came in with a Kd of 260 nM.

As for B29, the Kd was found to be 7.3 nM. B30 had a Kd of 1330 nM.

For the origin of these results see patent publication US20040072162A1, “Hiv peptides and nucleic acids encoding them for diagnosis and control of hiv infection” (priority 2000, published 2004).
